Measured values as given in publication PMC5253702.

Target: B/Victoria/504/2000 HA ectodomain (residues 1–530), soluble, His-tagged (influenza B virus B/Victoria/504/2000)
Assay: negative stain EM reconstruction

## B/Victoria/504/2000 HA ectodomain (residues 1–530), soluble, His-tagged (domain or fragment)
  stoichiometry N: 3
